The text below walks through data of paper PMC7295792, “Atomic-resolution mapping of transcription factor-DNA interactions by femtosecond laser crosslinking and mass spectrometry”.

Positions count from the first letter of the chain named.

The target of data set [1] is T1, NF1 (nuclear factor 1/C) (Sus scrofa (porcine), UniProt P21999 1-506). Kind of data set: EMSA; 200 mM NaCl; protein:DNA 2.1:1 to 11:1; NF1 binding buffer: 5 mM Tris-Cl pH 8.0, 90 mM NaCl (200 mM for EMSA and Fig. 2d), 0.5 mM EDTA, 5% glycerol, 0.55 mM beta-mercaptoethanol, 1 ug BSA; TBP: same + 2 mM MgCl2; 25 min, room temperature. Conditions: protein: recombinant; tags: 6xHis; chain copies: 2; label: 5'-biotin on both strands. In general terms: Mobility shift assays separate free from complexed probe on a gel.

In data set [2] the target is T1, NF1 (nuclear factor 1/C). Kind of data set: femtosecond UV laser crosslinking, western blot; 200 mM NaCl; 50 nJ pulses, total energy titrated; NF1 binding buffer: 5 mM Tris-Cl pH 8.0, 90 mM NaCl (200 mM for EMSA and Fig. 2d), 0.5 mM EDTA, 5% glycerol, 0.55 mM beta-mercaptoethanol, 1 ug BSA; TBP: same + 2 mM MgCl2; 25 min, room temperature. To be noted: protein: recombinant; tags: 6xHis; chain copies: 2; label: 5'-biotin on both strands.

Data set [3] deals with TBP (TATA-box binding protein) (Homo sapiens, UniProt P20226 1-339). Kind of data set: femtosecond UV laser crosslinking, western blot; 2 mM MgCl2; 50 nJ, 1.25 J; NF1 binding buffer: 5 mM Tris-Cl pH 8.0, 90 mM NaCl (200 mM for EMSA and Fig. 2d), 0.5 mM EDTA, 5% glycerol, 0.55 mM beta-mercaptoethanol, 1 ug BSA; TBP: same + 2 mM MgCl2; 25 min, room temperature. To be noted: protein: commercial; label: 5'-biotin on both strands.
Chain of TBP (TATA-box binding protein) (P20226 whole entry): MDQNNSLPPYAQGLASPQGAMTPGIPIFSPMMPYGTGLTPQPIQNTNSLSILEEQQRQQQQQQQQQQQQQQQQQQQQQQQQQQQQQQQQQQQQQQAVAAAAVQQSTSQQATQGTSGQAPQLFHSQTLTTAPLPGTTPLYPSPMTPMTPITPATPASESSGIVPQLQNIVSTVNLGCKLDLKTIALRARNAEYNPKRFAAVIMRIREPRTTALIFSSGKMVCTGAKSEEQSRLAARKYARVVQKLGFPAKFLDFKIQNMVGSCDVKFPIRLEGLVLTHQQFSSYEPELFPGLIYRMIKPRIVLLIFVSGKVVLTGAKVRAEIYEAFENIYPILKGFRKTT

T1 sequence (P21999 whole entry): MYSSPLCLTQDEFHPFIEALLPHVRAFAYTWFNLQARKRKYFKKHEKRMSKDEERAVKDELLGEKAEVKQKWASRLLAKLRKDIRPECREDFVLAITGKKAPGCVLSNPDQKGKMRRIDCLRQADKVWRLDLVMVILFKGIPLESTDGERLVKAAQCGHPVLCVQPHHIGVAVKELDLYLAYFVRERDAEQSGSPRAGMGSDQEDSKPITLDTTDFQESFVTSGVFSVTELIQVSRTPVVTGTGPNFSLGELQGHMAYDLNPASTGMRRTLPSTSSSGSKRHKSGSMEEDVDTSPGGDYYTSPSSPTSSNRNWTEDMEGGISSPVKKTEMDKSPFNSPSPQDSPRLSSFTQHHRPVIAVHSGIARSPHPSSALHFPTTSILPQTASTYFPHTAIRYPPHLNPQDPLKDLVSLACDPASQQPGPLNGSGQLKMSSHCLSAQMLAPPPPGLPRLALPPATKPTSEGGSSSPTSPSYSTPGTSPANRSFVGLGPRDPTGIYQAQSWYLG

B1: NF1 wild-type consensus oligo (dsDNA)
DNA 1: AATTCCTTTTTTTGGATTGAAGCCAATCGGATAATGAGG
DNA 2: CCTCATTATCCGATTGGCTTCAATCCAAAAAAAGGAATT
For B1, the binding result in data set [1] is on record as “binds”.

B2: NF1 wild-type oligo of Fig. 2d (dsDNA)
DNA 1: B1 DNA 1 with T3G, T13A, A31C, A33G
DNA 2: B1 DNA 2 with T7C, T9G, A27T, A37C
For B2, the binding result in data set [2] is “binds”.

B3: TBP wild-type AdML TATAA oligo (dsDNA)
DNA 1: CCTGAAGGGGGGCTATAAAAGGGGGTGGGGGCGCG
DNA 2: CGCGCCCCCACCCCCTTTTATAGCCCCCCTTCAGG
In the case of B3, the binding result in data set [3] is given as “binds”.
